Assay results as given in patent US20210403565A1 (BIOATLA, published 2021).

T1: human CTLA4 expressed on the cell surface of CHO cells (human, UniProt P16410 36-223)
T1 construct: whole, on cells; also called CHO-huCTLA4; huCTLA4
T1 sequence (looked up): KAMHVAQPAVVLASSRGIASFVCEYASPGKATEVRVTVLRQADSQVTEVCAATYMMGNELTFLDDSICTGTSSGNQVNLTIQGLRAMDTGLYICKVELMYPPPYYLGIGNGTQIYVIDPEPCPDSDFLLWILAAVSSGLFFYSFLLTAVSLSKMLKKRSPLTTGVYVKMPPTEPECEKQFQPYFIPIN

T2: recombinant human CTLA4 extracellular domain (human, UniProt P16410 36-161)
T2 construct: extracellular domain; also called huCTLA-4
T2 sequence (looked up): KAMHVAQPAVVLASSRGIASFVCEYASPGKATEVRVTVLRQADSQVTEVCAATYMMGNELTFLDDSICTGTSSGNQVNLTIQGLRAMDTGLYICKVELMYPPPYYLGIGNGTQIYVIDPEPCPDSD

T3: cynomolgus CTLA4 expressed on the cell surface of CHO cells (cynomolgus, UniProt G7PL88 36-223)
T3 construct: whole, on cells; also called CHO-cynoCTLA4
T3 sequence: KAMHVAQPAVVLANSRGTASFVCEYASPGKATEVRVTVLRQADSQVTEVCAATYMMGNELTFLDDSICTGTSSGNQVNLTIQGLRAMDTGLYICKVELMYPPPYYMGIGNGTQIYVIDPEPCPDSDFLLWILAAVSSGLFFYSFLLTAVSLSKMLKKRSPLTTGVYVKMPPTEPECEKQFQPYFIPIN

B1: BA-087-05-19 (antibody, V domains shown)
VH: EVQLVESGGGLVQPGGSLRLSCAASGFTFSHYTMHWVRQAPGKGLEWVSFISYDGNNKYYADSVKGRFTISRDNSKNTLYLQMNSLRAEDTAVYYCARTGWLGPFDYWGQGTLVTVSS
VL: AIQLTQSPSSLSASVGDRVTITCRASQYVGSSYLAWYLQKPGQSPQLLIYGAFSRATGIPARFSGSGSGTEFTLTISSLQSEDFAVYYCQQDGSSPWTFGQGTKVEIK
notes: Detected with anti-human IgG and a molecular weight of 146 kDa was used in SPR, so it was tested as a whole IgG; also called BA-087-05-019; BA-087-05-19 (# 6972)
B2: BA-087-08-32 (antibody, V domains shown)
VH: EVQLVQSGAEVKKPGATVKISCKVSGFTFSHYTMHWIRQSPSRGLEWLGFISYDGNYKYYADSVKGRFTISRDNAKNSLYLQMNSLRAEDTAVYYCARTGWLGPFDYWGQGTLVTVSS
VL: EIVMTQSPATLSVSPGERATLSCRASQSVGSSYLAWYQQKPGKAPKLLIYGAFSRATGVPSRFSGSGSGTDFTLTISSLQPEDFATYYCQQDGSSPWTFGQGTKVEIK
notes: Detected with anti-human IgG and a molecular weight of 146 kDa was used in SPR, so it was tested as a whole IgG; also called BA-087-08-032; BA-087-08-32 (# 6978)

Assays:
[1] = target: T1, human CTLA4 expressed on the cell …; assay: FACS, CHO cells expressing human CTLA4 (CHO-huCTLA-4), pH 7.4, MFI; no unit in the table, unit from the axis Log Antibodies [ng/ml]
Protocol: (§1) The amount of antibodies bound on the cells was quantified using anti-human IgG antibody conjugated to fluorophores. EC₅₀ values at pH 6.0 and 7.4 for binding to cells were calculated using the nonlinear fit (variable slope, four parameters) model built into GraphPad Prism software (version 7.03). The expression levels of human CTLA4 or cynomolgus CTLA4 on the surface of the CHO cells were determined using a BD QuantiBRITE™ PE kit.
(§2) At least two independent duplicate FACS experiments were performed for each antibody using each of the cell lines. The binding activities at different concentrations of the antibodies are plotted in these figures.

[2] = target: T1, human CTLA4 expressed on the cell …; assay: FACS, cells expressing human CTLA4, assay pH 6.0, MFI; lot 6972 in His buffer, T0; unit from the axis Log[ng/mL]
Protocol: (§3) The amount of bound antibodies was quantified using anti-human IgG antibody conjugated to fluorophores. The MFI in each reaction was proportional to the amount of antibodies bound. The EC₅₀ value (in ng/mL) for binding to human CTLA4 on cells was determined by MFI of the singlets population against antibody concentration with a Prism variable slope of four-parameter dose-response curve, which was calculated using the nonlinear fit (variable slope, four parameters) model built into GraphPad Prism software (version 7.03).

[3] = target: T2, recombinant human CTLA4 extracellular …; assay: ELISA, immobilised huCTLA-4, table head pH 7.0 (text: pH 7.4), Jul. 11, 2017
[4] = target: T2, recombinant human CTLA4 extracellular …; assay: ELISA, wells coated with human CTLA4, assay pH 6.0; lot 6972 in Glu buffer, T0; unit from the axis Log[ng/mL]
Protocol: (§4) Both ELISA and FACS analysis were used to measure the binding activity. […] The amount of bound antibodies was quantified using anti-human IgG antibody conjugated to HRP. The absorbance at 450 nm in each measurement was proportional to the amount of antibodies bound. […] EC50 value (in ng/mL) for binding to human CTLA4 was determined by absorbance at 450 nm against antibody concentration with Prism variable slope of four-parameter dose-response curve, which was calculated using the nonlinear fit (variable slope, four parameters) model built into GraphPad Prism software (version 7.03). The buffers tested included His buffer (His), Tris buffer (Tris), Glutamine buffer (Glu) and no buffer.

[5] = target: T2, recombinant human CTLA4 extracellular …; assay: ELISA, wells coated with human CTLA4, assay pH 7.4; lot 6972 without test buffer; same column repeated in FIG. 9B and FIG. 9C; unit from the axis Log[ng/mL]
Protocol: as §4

[6] = target: T1, human CTLA4 expressed on the cell …; assay: FACS, cells expressing human CTLA4, assay pH 6.0, MFI; lot 6972 in Tris buffer, T0; unit from the axis Log[ng/mL]
Protocol: as §3

[7] = target: T1, human CTLA4 expressed on the cell …; assay: FACS, cells expressing human CTLA4, assay pH 6.0, MFI; lot 6972 in Glu buffer, T0; unit from the axis Log[ng/mL]
Protocol: as §3

[8] = target: T2, recombinant human CTLA4 extracellular …; assay: ELISA, wells coated with human CTLA4, assay pH 7.4; lot 6978 in His buffer, T0; curve still rising at log 3 (OD450 below 0.2), no plateau; unit from the axis Log[ng/mL]
Protocol: as §4

[9] = target: T1, human CTLA4 expressed on the cell …; assay: FACS, cells expressing human CTLA4, assay pH 6.0, MFI; lot 6978 in Glu buffer, T0; unit from the axis Log[ng/mL]
Protocol: as §3

[10] = target: T3, cynomolgus CTLA4 expressed on the cell …; assay: FACS, CHO cells expressing cynomolgus CTLA4 (CHO-cynoCTLA-4), pH 7.4, MFI; curve near baseline up to log 4, about 150000 at log 5, no plateau; no unit in the table, unit from the axis Log Antibodies [ng/ml]
Protocol: as §1, §2

[11] = target: T2, recombinant human CTLA4 extracellular …; assay: ELISA, wells coated with human CTLA4, assay pH 6.0; lot 6978 in Tris buffer, T2W; unit from the axis Log[ng/mL]
Protocol: as §4

[12] = target: T1, human CTLA4 expressed on the cell …; assay: FACS, cells expressing human CTLA4, assay pH 6.0, MFI; lot 6978 in His buffer, T0; unit from the axis Log[ng/mL]
Protocol: as §3

Binder | EC50 [1] | EC50 [2] | EC50 [3] | EC50 [4] | EC50 [5] | EC50 [6] | EC50 [7] | EC50 [8] | EC50 [9] | EC50 [10] | EC50 [11] | EC50 [12]
B1 | 0.438 mg/L | 0.291 mg/L | 0.0502 mg/L | 0.0109 mg/L | 0.0546 mg/L | 0.291 mg/L | 0.291 mg/L | – | – | – | – | –
B2 | – | – | – | – | – | – | – | 0.491 mg/L | ~0.15 mg/L | 83.9 mg/L | 0.014 mg/L | 0.159 mg/L
